Substitutions are numbered along the chain they refer to.

In test [1] the target is recombinant human IL-18 (KG-1 bioassay) (human, UniProt Q14116 37-193). The test can be described thus: cell-based or functional assay.
For test [2], the target named is natural human IL-18 (whole blood assay) (human, UniProt Q14116 37-193). Nature of the test: cell-based or functional assay.
The target of test [3] is T1, mutant human IL-18 (mature form of pro-IL-18-5C→A, cysteines mutated to alanine) (human, UniProt Q14116 37-193).
T1 construct: also called Mutant IL-18; pro-IL-18-5C→A after caspase-1 cleavage
The test can be described thus: method not stated (Biacore is named later in the paragraph). A general note: SPR reads the build-up and loss of mass on a sensor chip optically.

Test [4] deals with T2, human (37-176)/murine (174-192) IL-18 chimera (human; mouse, UniProt Q14116 37-188).
T2 chain: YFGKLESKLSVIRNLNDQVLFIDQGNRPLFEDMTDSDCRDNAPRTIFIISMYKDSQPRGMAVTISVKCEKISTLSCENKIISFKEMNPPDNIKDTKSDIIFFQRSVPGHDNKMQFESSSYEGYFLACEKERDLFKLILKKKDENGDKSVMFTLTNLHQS
Nature of the test: sandwich ELISA: tagged IL-18 chimera captured by the test antibody, detected with an anti-tag antibody.

Test [5] concerns the target T3, murine IL-18, mature, with C-terminal V5 and His tags (mouse, UniProt P70380 36-192).
T3 construct: also called IL-18 mouse
T3 sequence: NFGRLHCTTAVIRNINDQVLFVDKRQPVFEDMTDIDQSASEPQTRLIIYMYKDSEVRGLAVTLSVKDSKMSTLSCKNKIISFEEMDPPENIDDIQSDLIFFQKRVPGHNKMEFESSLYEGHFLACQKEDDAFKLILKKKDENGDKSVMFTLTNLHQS
Nature of the test: sandwich ELISA, capture by test antibody, detection by anti-tag antibody. (An ELISA detects its analyte on a solid surface through an enzyme-linked reagent.)

The target in test [6] is T4, human/murine IL-18 chimera in which C-terminal human IL-18 residues 92-193 were replaced by the corresponding … (human; mouse).
T4 construct: Mature form after caspase-1 cleavage; also called human (37-91)/murine IL-18 chimera; not shown: C-terminal V5 and His tags and any linker to them
T4 chain: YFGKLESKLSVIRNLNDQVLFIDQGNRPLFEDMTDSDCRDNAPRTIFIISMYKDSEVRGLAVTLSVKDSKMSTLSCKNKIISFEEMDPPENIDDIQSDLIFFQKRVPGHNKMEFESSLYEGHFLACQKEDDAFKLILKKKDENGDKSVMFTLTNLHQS
The description is as above.

The target in test [7] is T5, human/murine IL-18 chimera in which C-terminal human IL-18 residues 120-193 were replaced by the … (human; mouse).
T5 construct: Mature form after caspase-1 cleavage; also called human (37-119)/murine IL-18 chimera; not shown: C-terminal V5 and His tags and any linker to them
T5 chain: T4 chain with E56Q, V57P, L60M, L64I, D68C, S69E, M71I, K77E
The description is as above.

Test [8] deals with T2, human (37-176)/murine (174-192) IL-18 …. The test is described as above.

B1: 125-2H, neutralizing murine immunoglobulin G1 (IgG1) monoclonal antibody specific for human IL-18 (antibody, V domains shown)
VH: EIQLQQSGPELVKPGASVKVSCKASGYSFTDYFIYWVKQSHGKSLEWIGDIDPYNGDTSYNQKFRDKATLTVDQSSTTAFMHLNSLTSEDSAVYFCARGLRFWGQGTLVTVSA
VL: DIQMTQSPSSLSASLGERVSLTCRASQDIGSKLYWLQQEPDGTFKRLIYATSSLDSGVPKRFSGSRSGSDYSLTISSLESEDFVDYYCLQYASSPYTFGGGTKLAIKR
notes: Murine IgG1
Take B1: the “IC50, human myelomonocytic cell line KG-1 bioassay; IL-18Rα/β-driven IFN-γ production” value in test [1] was 0.2 nM. For the same molecule, in test [2], the “IC50, whole blood assay; LPS+IL-12-driven IFN-γ production” value is ~3 nM. Further, in test [3], the Kd is ~0.2 nM. Further, in test [4], the binding result was “no binding”.

B2: ABT-325, recombinant human immunoglobulin G1 (IgG1) monoclonal antibody specific for human IL-18 (antibody, V domains shown)
VH: EVQLVQSGTEVKKPGESLKISCKGSGYTVTSYWIGWVRQMPGKGLEWMGFIYPGDSETRYSPTFQGQVTISADKSFNTAFLQWSSLKASDTAMYYCARVGSGWYPYTFDIWGQGTMVTVSS
VL: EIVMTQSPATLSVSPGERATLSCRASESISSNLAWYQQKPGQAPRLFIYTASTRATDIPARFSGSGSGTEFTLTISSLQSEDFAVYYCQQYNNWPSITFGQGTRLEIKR
notes: IgG1 kappa
For the molecule B2, the “IC50, human myelomonocytic cell line KG-1 bioassay; IL-18Rα/β-driven IFN-γ production” value in test [1] was determined as 0.2 nM. Also, the “IC50, whole blood assay; LPS+IL-12-driven IFN-γ production” value in test [2] is ~3 nM. For the same molecule, the dissociation constant Kd in test [3] was ~0.2 nM. Further, the binding result in test [5] is “no binding”; in test [6], “no binding”; in test [7], “no binding”; in test [8], “binds”.

Broadly, the Kd is the equilibrium constant for the complex coming apart. A low value points to higher affinity.

The values above are taken from patent US20090202557A1 (published 2009).
